Laboratory results reported in article PMC9969250.

B1: nanotrain without L2 on SPR chip (NT0; 5'-biotin-D + C + B + A.1) (mixed)
DNA 1: CGGCAAAGATCTAAAGGCGACAAGGAAAATCCTTCAACGAAGTGGGTCGCCCTAACTCTCTATCCG
DNA 2: TTGAGCTGGTTGTATGGCGACAAGGAAAATCCTTCAACGAAGTGGGTCGCCGGATAGAGAGTTAGG
DNA 3: ATACAACCAGCTCAAGGCGACAAGGAAAATCCTTCAACGAAGTGGGTCGCCATTCATAAACATAAC
DNA 4: GGCGACAAGGAAAATCCTTCAACGAAGTGGGTCGCCGTTATGTTTATGAAT
modifications: 5' biotin on D

How the values were obtained:
[1] = molecular target: T1, Plasmodium falciparum lactate dehydrogenase (PfLDH) (Plasmodium falciparum, UniProt Q76NM3 1-316); experiment: SPR
[2] = molecular target: T1, Plasmodium falciparum lactate …; experiment: SPR; remark: listed apart in the source

Binder	Kd [1] [nM]	binding result [2]
TTTAGATCTTTGCCGCTGGGCGGTAGAACCATAGTGACCCAGCCGTCTAC (structured_DNA, biotin (position not given)) [biotinylated L2]	66 ± 7	
B1		no binding
